According to a protein production outcome set (Wang et al. 2014):

Assay: label from the status in PepcDB records

| Sequence | protein production |
| --- | --- |
| MPEASSPASEKSLSRLLLELLWQLAALLIPIFFVTLLPPPAALGVLLGCAAAMTLAARLGWPKTARGLARLMISAAFGLGFSLGRALPAYWDIAAAFTSIFAGLAAVSHLERRLGLVQPSPTPISAWGGNEPQQTPEGQPIRVFNHGEIAMGGPTYCDYLFPDGVLLQGLGSSARFSSDGRYFAAPLPSRQHWGLAILDREQRRLYRCNREHFWELDAFSADTLSGRHSPLVDNGQHQASLNSLLQEAECVELVAVADLWLEPGQWLEALARQDFEESAPHGSHRLHASLALPASLRALEQPLEPLRTPPYRISIDGQPSGLLLRADAPRIWRDDGRALACIAHEQAQPEAACCWLWQADKGWRALPAPWVASHAEPSFYPGPLLSLDRHWLGYSAYLDLAEADHGRYGYRLHSTHSDSETGVGHDRQGCLQVAPLPLTRTQLLQPLDGSGARGESRIQSQPLLGEQRALFSWLTDNPRGLGAYRCQIGTWQLPGCWLLDHRVSDCQRYLALLPWSETLELAPQVVVADLQQQRLIYSPALLAARLLDFRQGRLSLAVLVGRLDPDHASSPLQRFNRPAPAPEHAAAFCTEGPASQPCYERQDWLVIDDQLQPVAPWRLVDRPQAAVAEGDFIQPAPDGRDAAWLFGSETEYADSWLRETSPRLGGHLLTASGCAVGDLAPSLIWSTDARYLALTRLRLGAGDPQQGYRAWQLLLLDVQERSLRIAPDWLRHRPLFQHFDARGLALQLFERDWQAADDPDPGRSLEWALEDLLRLPAEPLREHQGLWLSAADWPQARAWQALRRPAHPAFRAGA | failed |
| MPEEVSNEIEAPSLHTPEEVLLHYWGYPSFRPVQLPIIESVLAGKDTLGLLPTGGGKSITFQVPGLLLPGLTLVVTPLIALMRDQIMGLRQKGIKATAVHAGMTREQIITTLDNCIYGRYKFLYVSPERLGSELFLSRLHALRVSLLVVDECHCISQWGYDFRPAYLSIADIREALPDVPVLALTATATRPVIDDIQRILRFPEPNVLRKSFFRPNLSYSIRRTADKETMLLHILSRVDGSAVVYCRNRDKARDLARFLGENGFSADFYHAGLNHVTREIRQKSWMEGETRIIVCTNAFGMGIDKPDVRLVLHMEMPSSPEEYFQEAGRAGRDGERAYAVLLAGEDDIFNLKRRVSNEFPPREYIATVYNRICNYLQIGEGEGFERSFDFDIDAFCRNFRMFPTQVLAAIRILDVAGIWEYREEKTRSRLTIQVQRDELYRMRSEQASDSVLTALMRTYDGLFADYVSIVESELAEKTGLSVDQVYQQLLLLNKAGIVNYIPQKNLPRIYFLTRREDAELLQIPRAAYEDRRDRLKARIDQSLRYIEEENTCRSRMLLAYFGEEQSHNCKLCDVCLRRKDGELHHHEVDDLLHFLEQRLTEETPYVLIADICRELHHHPDVVLKAIRFVMKESWQYSTDGDTVFLTHKLPGGLNL | failed |
| MPEGHRATAIYFRHLLLIRVEIENIVNTLAICRHTFYISSLSLPCNLNKLIIMENLQSNLFYSLAGVAAVASLASCTNKQKTTEQKPLNIVYIMTDDHTAQMMSCYDTRYMETPNLDRIAADGVRFTQSFVANSLSGPSRACMITGKHSCANKFYDNTTCVFDSSQQTFPKLLQKVGYQTALVGKWHLESLPSGFNYWQIVPGQGDYYNPAFITQDNDTIQKHGYITNLITDDAIDWMENKRDPEKPFCLLIHHKAIHRNWMADTCNLALYEDKTFPLPDNFFDDYEGRPAAAAQEMSIVKDMDMIYDLKMLRPNEKSRLRSLYERFLGRMDEGQRAAWDKFYAPIIDDFYKQNLTGKELANWKFQRYMRDYMKTVKSLDDNVGRVLDYLKEKGLLDNTLVVYTSDQGFYMGEHGWFDKRFMYEESMRTPLIMRLPKGFDRRGDITEMVQNIDYAPTFLELAGAEIPADIHGVSLLPLLKGEHPKDWRKSLYYHFYEYPAEHMVKRHYGVRTERYKLIHFYNDINWWELYDMQADPSEMHNLYGEAEYEPVVKELKDELLKLQEQYNDPVRFSPERDKE | failed |
| MPEGLATAQAKYNGAAGRAFVEGLPALAAGFLERWELRLDGPSMHGWAALVLPVVRRDGTGAVLKLQILDAETEGEPLALRVWDGDGAVRLLDHDPATGTMLLERLDAGRMLSHVADSREAVLVIARLLAHLTATPAPPGVRRLGDIARGMLERTPGTLERIPDPADRRLVADCAAAVREVVDEPGDRLLHWDLHYENVLAADRAPWIAIDPKPLAGDPGFDLLPALDNRYDPGETRWRFDALTDVLGLDRERARAWSLGRVLQNSLWNVEDGDPLETEQMEIGRLLRDL | failed |
| MPEITLKVDSAYPEDQGNGKARLDPSAMQALNVSPGDLVRITGKTSTVAKVWRSFESDWNMEKIRIDKYTRANASVNPGDRVTVEKVEEEIPATSVTLVSPSEISAAFPDEEDDYLISLINFPVSLDDIIPIKTFHPGPPLEFKVSAIEPENACILNKMTELVFNDDDEFDGTKAITYEDIGGLKGELKRVREMIELPIRHPELFETMGIEPPKGVLLYGPPGTGKTLIAKAVANESGAHFISIAGPEIISKYYGESEQKLREIFEEAEEEAPSIIFIDELDSIAPKREDVNGEVERRVVAQLLTMLDGITDRGQVIVIGATNRPDAIDPALRRPGRFDREIEIGVPAEADRMEILQIHTKDMPFEGMAKLKELRSSEPSETVLEKALADYEASRDKLLWMLASQAKGFVGADLAALAREAAIRALRRQIDVADIDNEKIPEEVLRKLEVTTSDFILASREVAPSAMREIALETADVSWTDIGGSRDAVRDVRESVEFPLTRKEVFAQLGIRPPKGVLLYGPPGTGKTMIAKAVAHESGANFIAVKGPELLSKWVGESEKAVRDIFKKARQVAPAIIFFDELDSLTPSRGASDGSRTTENVLNQILTEMDGIEELNDVMILAASNRPDIIDPALLRSGRFDRLVYISEPEEADRKEILAVHMQNMPIEGSSFDEAVKEVSGLNEASLESLGAKFSGKSVTIKQIKTAAGKYTKGTPLSLIEERRRLAAVLRQHAVTLSDPEKTKLIRQLAEDTAGYVGSDLEGLCREAAMHALRNQANVVTADDFAEARKKIHPTMNERVREYYISISQRFKGGLPKEAQNLIEYQ | failed |
| MPEPHAVLYVTNELSHIVKNEFLPIWKLTGDESLNDLWLENGKYATDVYAYGDVSKWTIRQLRGHGFIFISTHKNVQLADIIKTVDVRVPREVARSHDMKAFENEIGRRRIRMRKGFGDALRNYAFKMAIEFHGSEAETLNDANPRLHKIYGMPEIPPLYMEYAEIGTRFDDEPTDEKLVSMLHYIVYSAEEVHYIGCGDLRTLMQFKKRSPGRFRRVLWHVYDPIAPECSDPNVIVHNIMVDSKKDILKHMNFLKRVERPFIWDVSSDRSQMNDHEWETTRFAEDRLGEEIAYEMGGAFSSALIKHRIPNSKDEYHCISTYLFPQPGADADMYELRNFMRLRGYSHVDRHMHPDASVTKVVSRDVRKMVELYHGRDCGSFLKKRLFEHLHIVRKNGLLHESDEPRADLFYLTNRCNMGLEPSIYEVMKKSVIATAWVGRAPLYDYDDFALPRSTVMLNGSYRDIRILDGNGAILFLMWRYPDIVKKDLTYDPAWAMNFAVSLKEPIPDPPVPDISLCRFIGLRVESSVLRVRNPTLHETADELKRMGLDLSGHLYVTLMSGAYVTDLFWWFKMILDWSAQNREQKLRDLKRSAAEVIEWKEQMAERPWHVRNDLIAALREYKRKMGMREGASIDSWLELLRHL | not failed |
| MPERVKRKRYALVGTGNRGTTMWGRELLAGWSDYVELVGICDLNLMRAERARAMMGSNAPLYDDFDRMMVEQRPELVIVCTPDDTHDDIIIRALEGGADVISEKPMTTTPEKIDRIRAAEAKSGRRVDVSFNYRFSPTAARIKELIDDGAIGTVTSVDFHWYLDNQHGADYFRRWHAFTEHSGSLFVHKATHHFDLLNWYLDSDPVEVKGFGQLLHYGKNGPFRGTRCRTCPHKDECDYFMDLGADPFLDALYEDPSSIDGYMRDACVFREEIDIPDTMSASIRYASGVQVSYSLNTYMPIEGHHIAFNGHKGRIEMRQYEKQPWAEPPADEILVVKSFGGGVERIWVPHEPGGHYGGDNRMRDMIFKPGSNDRLRQRAGSRAGAMSVLCGVAALKSARDGGSQPIKSLPL | failed |
| MPESYWEKVSGKNIPSSLDLYPIIHNYLQEDDEILDIGCGSGKISLELASKGYSVTGIDINSEAIRLAETAARSPGLNQKTGGKAEFKVENASSLSFHDSSFDFAVMQAFLTSVPDPKERSRIIKEVFRVLKPGAYLYLVEFGQNWHLKLYRKRYLHDFPITKEEGSFLARDPETGETEFIAHHFTEKELVFLLTDCRFEIDYFRVKELETRTGNKILGFVIIAQKLLEHHHHHH | not failed |
| MPEVVFYPQNKSINVEEGTTILQAARSAGVIIESPCNGTGTCGKCKVRLDEKSLPNVLAKSRHYLSKEEEEQGYVLACETQITGDIKVELGENKQNGTLKILSRGHSFNIDLKPFIRKEYFVHEDVTKVFAGKEQLGIEAGDTTKENYGAVVDIGTTTLVASIVNLNNGDEIGTSSALNPQAVHAQDVLSRIKFSSDADGLKVMHSELTDKINSMIGKIALRAGISKEHIYEIVFSGNTCMLHLASNTCPESLGKYPYTPKISGAAYLDAAKYNIDISPFGIIYLPPIISAYVGADIVSGILASQLHEKDGVILFVDIGTNGEMVLASCGNLSATSTAAGPAFEGMNITCGMRAGEAAIEFFEIEEQGSINIKVIGETEAAGICGSGLLDMVGEFAAHGVIKKNGQFIDPESENVLHPKLAERLVRQDGKWIFKVTDKVFLSQKDIRQVQLAKGAVRAGIEFLLENKGVRASDVDKVLIAGSFGYHLREKSLINIGLLPKEFEGKVEFVGNTSLSGAKAFLLNQTYREKMKETVKSVEVLELANYKDFDRVFVRCLSFLEHHHHHH | failed |
| MPFSKNLENLTAPFKRIKNRSLVLALGFLILTFCLLLFLILSDVSRLISGKDFFYVIQSHPKQTLIEDENYFYANKGLYKTNKEAFLRVYKIPESMPIERRENLSKVSKIFLALLFFISSMLFGIFWRLPKRLDTKMSLESAHKNELENAFQRYDALGVRFEDIAGVDEVKEELLEVIDYLKNPKKYQDLGIFLPKGVLLIGPPGVGKTMIAKALASEARVPFFYESGSAFSQIYVGAGAKKVHELFMHAKRHAPSIIFIDEIDALGKARGGHRSDEREATLNQLLTEMDGFLQNDEVVVIGATNQMEVMDEALLRSKRFDRRIFISLPDLLERQSILEKLLENKKHALNYLKIAKICVGFSGAMLATLINESALNALKHQRTEIAESDILEVKDKIAYGKKKPQTLDENQKELVALYQSAKALSAYWLEIEFDKAPILGEFIAFNENKIHSESEIKNYIKVYLSGTIILELLYKERYSLSKQDLQKAKFLNEFMASELLLAPTKESLSVLYEEQLEFLKPQIAACKRLSVLLLEQEYLEHSNLYDLLNG | failed |
| MPGAMHDEPDHPELSITVPTLNEAEGLERFFAMLSAQQGVRFELVIADGGSTDGTPESARRLAAATPFAATVIETGRGRGRQMNAGAAAAAGDTLLFLHADCAFPDPLALRTALDAFTQTVAAGGSHRVAGHFRLRFERTDSAPSLPYYFYEWKARLHRPGCTHGDQGLLLGRRFFAEAGPFDESFPILEDVGLAERIAALGEWLLLPAEIVTSARRFEAEGLRERQTLNALLMNFAAMGWDPFLAELPRLYQSQDRAGRLLLGPVLRLIARLLRPLPRRERGRLWRETGRYVRANAWQIPFFLDVRRHFRQGTPVGEGETPRLDLHDRIFDRLTENGAGHRATALLVWIWFRLSLLREPLTPPAARNPEGNGSLEHHHHHH | not failed |
| MPGFNYGGDQDEVYTPYRRVLVTGATGLLGRAVYKEFKNNDWDALGCGYNRARPFFLKCNLLDEDAVRGVIQSFQPHVIVHCAAERRPDVVERHTEAAMNLNVHACATLAKEAGGSFLIYISTDYVFDGRNPPYGENDAPNPLNLYGKSKLEGEREILRHCPGAAVLRVPILFGEVEKVEESAVTVLFERVQEGAESCTIDHCQQRFPTYTNDVARVCRNMAERALQDQSLRGIFHYSAKEQMTKYEMTCAIADAFNLPSSHLIPMTEQPAGAGAQRPQNAQLECSRLELLGLSVESTPFKNAIRDSLWPFQHDKRWRQTVFH | not failed |
| MPGIDFDALYRGESPGEGLPPITTPPWDTKAPKDNVIGWHTGGWVHGDVLDIGCGLGDNAIYLARNGYQVTGLDISPTALTTAKRRASDAGVDVKFAVGDATKLTGYTGAFDTVIDCGMFHCLDDDGKRSYAASVHRATRPGATLLLSCFSNAMPPDEEWPRSTVSEQTLRDVLGGAGWDIESLEPATVRRELDGTEVEMAFWNVRAQRRGS | failed |
